Assay results reported in PMC11335197.

B1: AT1R wildtype C-terminally fused to YPet [not stated] / AT1R wildtype coupled to mTurquoise2 [not stated] (parent)
chain 1: MILNSSTEDGIKRIQDDCPKAGRHNYIFVMIPTLYSIIFVVGIFGNSLVVIVIYFYMKLKTVASVFLLNLALADLCFLLTLPLWAVYTAMEYRWPFGNYLCKIASASVSFNLYASVFLLTCLSIDRYLAIVHPMKSRLRRTMLVAKVTCIIIWLLAGLASLPAIIHRNVFFIENTNITVCAFHYESQNSTLPIGLGLTKNILGFLFPFLIILTSYTLIWKALKKAYEIQKNKPRNDDIFKIIMAIVLFFFFSWIPHQIFTFLDVLIQLGIIRDCRIADIVDTAMPITICIAYFNNCLNPLFYGFLGKKFKRYFLQLLKYIPPKAKSHSNLSTKMSTLSYRPSDNVSSSTKKPAPCFEVE
chain 2: B1 chain 1

Tests used:
[1] = variants of: B1; assay: FLIM (FRET) in living HEK293 cells; conditions: with AT1R wildtype coupled to mTurquoise2, 2-exponential fitting, acceptor AT1R-YPet, read off a plot
[2] = variants of: B1; assay: intensity-based FRET microscopy in living HEK293 cells; conditions: with AT1R wildtype coupled to mTurquoise2; donor AT1R-mTurquoise2 (wildtype), acceptor AT1R-YPet; read off a plot

donor fluorescence lifetime [1] [ns] | response [2] [%] | Variant
3 | 67 | chain 1 MILNSSTEDGIKRIQDDCPKAGRHNYIFVMIPTLYSIIFVVGIFGNSLVVIVIAAYMKLKTVASVFLLNLALADLCFLLTLPLWAVYTAMEYRWPAGNAACKIASASVSFNLYASVFLLTCLSIDRYLAIVHPMKSRLRRTMLVAKVTCIIIWLLAGLASLPAIIHRNVFFIENTNITVCAFHYESQNSTLPIGLGLTKNILGFLFPFLIILTSYTLIWKALKKAYEIQKNKPRNDDIFKIIMAIVLFFFFSWIPHQIFTFLDVLIQLGIIRDCRIADIVDTAMPITICIAYFNNCLNPLFYGFLGKKFKRYFLQLLKYIPPKAKSHSNLSTKMSTLSYRPSDNVSSSTKKPAPCFEVE [chain 1 Y54A F55A F96A Y99A L100A]
3.5 | 35 | chain 1 MILNSSTEDGIKRIQDDCPKAGRHNYIFVMIPTLYSIIFVVGIFGNSLVVIVIYFYMKLKTVASVFLLNLALADLCFLLTLPLWAVYTAMEYRWPFGNYLCKIASASVSFNLYASVFLLTCLSIDRYLAIVHPMKSRLRRTMLVAKVTCIIIWLLAGLASLPAIIHRNVFFIENTNITVCAFHYESQNATLPAGLGATKNAAGFAAPFLIILTSYTLIWKALKKAYEIQKNKPRNDDIFKIIMAIVLFFFFSWIPHQIFTFLDVLIQLGIIRDCRIADIVDTAMPITICIAYFNNCLNPLFYGFLGKKFKRYFLQLLKYIPPKAKSHSNLSTKMSTLSYRPSDNVSSSTKKPAPCFEVE [chain 1 S189A I193A L197A I201A L202A L205A F206A]
